Reference: IntAct's records for PubMed 22863780

Target: rcan1_mouse Rcan1 (UniProt Q9JHG6)

Substance: Fragile X messenger ribonucleoprotein 1 (Mus musculus) (from UniProt P35922) S499A
- effect of a mutation on the interaction: disrupting interaction
